From US20200347144A1 (SHANGHAI HYAMAB BIOTECH, published 2020)
Each block holds one binder with its values, some of them ahead of it.

How the values were obtained:
[1] = target: T1, monkey 4-1BB on CHOK1 cells (monkey); assay: FACS on CHOK1-c4-1BB cells, Alexa 488 secondary antibody, average fluorescence intensity
T1 construct: whole, on cells; also called CHOK1-c4-1BB
Description: The pIRES plasmid carrying the full-length gene of monkey-derived […] (the preparation method is the same as the preparation method of the pCpC vector carrying the human-derived IgG Fc fragment (hFc) in “Preparation of immunogen A” of the step (1) in Example 1, in which the database accession number of the amino acid sequence of the extracellular region of monkey 4-1BB protein (Phe19-Thr239) is G7PSE7) was transfected into CHOK1 cell line to obtain CHOK1 stable transfected cell line containing monkey 4-1BB (herein referred to as CHOK1-c4-1BB stable cell line). The CHOK1-h4-1BB stable cell line and the CHOK1-c4-1BB stable cell line were expanded and cultivated to 90% confluence in T-75 cell culture flasks. The medium was exhausted, and washed twice with HBSS buffer (Hanks Balanced Salt Solution, purchased from Invitrogen), and then the cells were treated and collected with enzyme-free cell dissociation solution (Versene solution, purchased from Life Technology). The cells were washed twice with HBSS buffer, and after cell counting, the cells were diluted with HBSS buffer to 2×10⁶ cells per ml, and 1% goat serum blocking solution was added, the percentage being the mass percentage. It was incubated on ice for 30 minutes, and then washed twice with HBSS buffer by centrifugation. The collected cells were suspended in FACS buffer (HBSS containing 1% BSA, the percentage was the mass percentage) to 2×10⁶ cells/mL, and 100 μl per well was added to a 96-well FACS reaction plate. The purified 4-1BB antibody test sample obtained in Example 2 was added, 100 microliters per well and incubated on ice for 2 hours. […] It was washed three times with FACS buffer by centrifugation, and 100 μl of fixative [4% (v/v) paraformaldehyde] per well was added to suspend cells, and washed twice with FACS buffer after 10 minutes by centrifugation. The cells were suspended with 100 microliters of FACS buffer, and the results were detected and analyzed with FACS (FACS Calibur, purchased from BD).

[2] = target: T2, mouse 4-1BB protein (extracellular domain) (mouse, UniProt P20334 24-187); assay: ELISA, coated mouse 4-1BB; Ab 2 ug/ml
T2 construct: extracellular domain; also called mouse 4-1BB-his; mouse 4-1BB-hFc protein
T2 sequence (looked up): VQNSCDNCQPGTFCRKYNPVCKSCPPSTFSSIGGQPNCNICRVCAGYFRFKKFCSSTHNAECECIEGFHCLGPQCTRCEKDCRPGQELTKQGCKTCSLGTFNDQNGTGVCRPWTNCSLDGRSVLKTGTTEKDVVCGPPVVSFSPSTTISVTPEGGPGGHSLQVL
Description: The purified immunogen A (4-1BB-hFc), monkey 4-1BB-his, and mouse 4-1BB-his obtained in Example 1 [for the preparation method, see step 1 of Example 1, preparation of immunogen A], of which the extracellular domain of monkey-derived 4-1BB protein (purchased from ACRO biosystems), the extracellular domain of mouse 4-1BB protein (purchased from sino biological) or other immune detection point proteins respectively were diluted with PBS to a final concentration of 1.0 μg/mL, then added with […] per well to 96-well ELISA plate. It was sealed with plastic film and incubated at 4° C. overnight. The next day, the plate was washed twice with the plate-washing solution [PBS containing 0.01% (v/v) Tween20] and blocking solution [PBS containing 0.01% (v/v) Tween 20 and 1% (v/v) BSA] was added and blocked at room temperature for 2 hours. The blocking solution was discarded and 100 μl of the purified 4-1BB antibody obtained in Example 2 was added per well. After incubated at 37° C. for 2 hours, the plate was washed 3 times with a plate-washing solution [PBS containing 0.01% (v/v) Tween20]. A secondary antibody (purchased from Sigma) labeled with HRP (horseradish peroxidase) was added, and after incubated at 37° C. for 2 hours, the plate was washed 3 times with a plate-washing solution [PBS containing 0.01% (v/v) Tween20]. 100 μl of TMB substrate was added per well. After incubated for 30 minutes at room temperature, 100 μl of stop buffer (1.0N HCl) was added per well. The A450 nm values were read using an ELISA plate reader (SpectraMax 384plus, Molecular Device).

[3] = target: human 4-1BB, full length, on transfected cells (human, UniProt Q07011 24-255); assay: cell-based or functional assay
Sequence of human 4-1BB, full length, on transfected cells (Q07011 24-255): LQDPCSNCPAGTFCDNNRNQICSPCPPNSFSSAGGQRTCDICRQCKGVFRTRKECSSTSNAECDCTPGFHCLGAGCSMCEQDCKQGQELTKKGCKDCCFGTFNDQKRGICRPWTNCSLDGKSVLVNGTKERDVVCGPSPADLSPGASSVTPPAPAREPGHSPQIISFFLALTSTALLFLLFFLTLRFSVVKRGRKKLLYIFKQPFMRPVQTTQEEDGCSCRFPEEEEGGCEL

[4] = target: T3, his-tagged human 4-1BB protein antigen (human, UniProt Q07011 24-186); assay: SPR (Biacore T200), antibody captured on anti-human Fc, his-tagged human 4-1BB as analyte
T3 construct: not shown: his tag
Description: The Biacore T200 instrument (purchased) was used to determine the affinity constant. The specific operation and method were based on the instrument manual and the detailed method provided by the manufacturer. Sensors labeled with anti-human Fc were combined with anti-4-1BB fully human antibodies to detect the binding and dissociation of five different gradients of his-tagged human 4-1BB protein antigen. Then software was used to fit the dissociation constant and the binding constant. The affinity constant is the ratio of the dissociation constant and the binding constant.

EC50 (read off the curve) [1]: ~0.2 µg/mL
B1: 23G3B8 (antibody, V domains shown)
VH: QVQLQESGPGLVKPSETLSLTCAVSAYSISSGYYWGWIRQPPGKGLEWIGSIFHSGSNYYNPSLKSRVTISVDPSKNQFSLKLSSVTVADTAVYYCARESSGYNCFDYWGQGTLVTVSS
VL: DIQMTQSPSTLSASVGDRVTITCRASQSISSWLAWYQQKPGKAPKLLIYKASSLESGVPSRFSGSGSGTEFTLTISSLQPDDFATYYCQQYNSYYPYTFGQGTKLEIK

EC50 (read off the curve) [1]: ~0.2 µg/mL
B4: 289B6G6 (antibody, V domains shown)
VH: QVQLQESGPGLVRPSETLSLTCAVSGYSISSGYYWGWIRQPPGKGLEWIGSIFHSGNTYYNPSLKSRVIVSGDTSKNQFSLKLSSVTAADTAVYYCTRESSGFNVFDIWGQGTMVTVSS
VL: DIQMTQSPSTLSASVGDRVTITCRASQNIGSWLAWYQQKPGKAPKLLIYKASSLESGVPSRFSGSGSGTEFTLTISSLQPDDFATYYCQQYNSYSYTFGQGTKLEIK

The remaining lines, values behind:

B2: 118F3A2 (antibody, V domains shown)
VH: QVQLQQWGAGLLKPSETLSLTCGVYGGSFSTNYWSWIRQSPGKGLEWIGEINHSGNTEYNPSLKSRLTISIDTSKNQFSLKLTSVTAADTAVYYCARMGYHSPSFDFWGQGVLVTVSS
VL: KIVMTQSPATLSVSPGERATLPCRVSQGIGSNLAWYQQKPGQAPRLLIYGASTRATGVPARFSGSGSGSEFTLTISSLQSEDLALYYCQQYNNWPLTFGGGTKVEIK
OD450 nm [2]: 0.12 OD450 nm

B3: 113F6C6 (antibody, V domains shown)
VH: QVQLVESGGGVVQPGRSLRLSCAASGLTFSSYGMHWVRQAPGKGLEWVAVIWYDGSNKYYADSVKGRFTISRDNSKNTLYLQMNSLRAEDTAVYYCAREEVLWFGELSYNYYYGMDVWGQGTTVTVSS
VL: DIQMTQSPSSLSASVGDRVTITCRASQGISNYLAWYQQKPGKVPKLLIYAASTLQSGVPSRFSGSGSGTDFTLTISSLQPEDVATYYCQKYNSVPLTFGGGTKVEIK
notes: also called 4-1BB fully human antibody 113F6C6; 113F6F6
NFκB luciferase reporter, 4-1BB+ HEK293; EC50; cross-linked [3]: 0.41 nM
NFκB luciferase reporter, 4-1BB+ HEK293; EC50; non-cross-linked [3]: 3.46 nM
NFκB luciferase reporter, 4-1BB+ HEK293; fluorescence multiple vs human IgG; cross-linked; Ab 0.00013 ug/ml [3]: 0.7 fold
NFκB luciferase reporter, 4-1BB+ HEK293; fluorescence multiple vs human IgG; cross-linked; Ab 0.00064 ug/ml [3]: 1.3 fold
NFκB luciferase reporter, 4-1BB+ HEK293; fluorescence multiple vs human IgG; cross-linked; Ab 0.0032 ug/ml [3]: 2.15 fold
NFκB luciferase reporter, 4-1BB+ HEK293; fluorescence multiple vs human IgG; cross-linked; Ab 0.016 ug/ml [3]: 6.55 fold
NFκB luciferase reporter, 4-1BB+ HEK293; fluorescence multiple vs human IgG; cross-linked; Ab 0.08 ug/ml [3]: 14.6 fold
NFκB luciferase reporter, 4-1BB+ HEK293; fluorescence multiple vs human IgG; cross-linked; Ab 0.4 ug/ml [3]: 14.8 fold
NFκB luciferase reporter, 4-1BB+ HEK293; fluorescence multiple vs human IgG; cross-linked; Ab 2 ug/ml [3]: 17.1 fold
NFκB luciferase reporter, 4-1BB+ HEK293; fluorescence multiple vs human IgG; cross-linked; Ab 10 ug/ml [3]: 13.6 fold
NFκB luciferase reporter, 4-1BB+ HEK293; fluorescence multiple vs human IgG; non-cross-linked; Ab 0.00013 ug/ml [3]: 1.25 fold
NFκB luciferase reporter, 4-1BB+ HEK293; fluorescence multiple vs human IgG; non-cross-linked; Ab 0.00064 ug/ml [3]: 0.95 fold
NFκB luciferase reporter, 4-1BB+ HEK293; fluorescence multiple vs human IgG; non-cross-linked; Ab 0.0032 ug/ml [3]: 1.3 fold
NFκB luciferase reporter, 4-1BB+ HEK293; fluorescence multiple vs human IgG; non-cross-linked; Ab 0.016 ug/ml [3]: 4.35 fold
NFκB luciferase reporter, 4-1BB+ HEK293; fluorescence multiple vs human IgG; non-cross-linked; Ab 0.08 ug/ml [3]: 12.7 fold
NFκB luciferase reporter, 4-1BB+ HEK293; fluorescence multiple vs human IgG; non-cross-linked; Ab 0.4 ug/ml [3]: 12.1 fold
NFκB luciferase reporter, 4-1BB+ HEK293; fluorescence multiple vs human IgG; non-cross-linked; Ab 2 ug/ml [3]: 23 fold
NFκB luciferase reporter, 4-1BB+ HEK293; fluorescence multiple vs human IgG; non-cross-linked; Ab 10 ug/ml [3]: 22.1 fold
Kd [4]: 17.6 nM
koff [4]: 0.03 s⁻¹
kon [4]: 1.68e+06 M⁻¹ s⁻¹
EC50 (read off the curve) [1]: ~0.1 µg/mL
OD450 nm [2]: 0.18 OD450 nm
